# ± gives the standard deviation of the averaged measurements.
# Test system: Saccharomyces cerevisiae
# Test: protein stability index of tFT-peptide fusion (C-terminal peptide) (PSI (0-1 scale)); higher = more stable (slower turnover)
# Conditions: genetic background: wild type; temperature: 30 C
# 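Also: PSI is a weighted mean of sequencing reads over stability bins, variants kept only with over 10 reads, mCherry proximal and sfGFP distal, peptide attached via GGGS linker.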
row,Sequence,protein stability index
1,RGALGVVWAGLD,0.638 ± 0.021
2,RGARGIGVRLRV,0.651 ± 0.026
3,RGASDYARMSAF,0.7047 ± 0.0037
4,RGDGAGQARGVV,0.684 ± 0.053
5,RGDGVRGGKNGR,0.689 ± 0.034
6,RGEVWVEVALGV,0.642 ± 0.021
7,RGFSLSCCERSI,0.749 ± 0.026
8,RGGAGRRWGRGK,0.631 ± 0.073
9,RGGGGGGGAAGS,0.657 ± 0.037
10,RGGGGRGFAGRK,0.608 ± 0.038
11,RGGGLGGLRSRA,0.823 ± 0.081
12,RGGGRGVWGHVV,0.607 ± 0.0063
13,RGGGWVLEVLLG,0.5195 ± 0.0024
14,RGGWGGGDCVGA,0.688 ± 0.09
15,RGGWRVTNKKNI,0.645 ± 0.023
16,RGKSPPPSSPPL,0.684 ± 0.024
17,RGLRRIPDAPPH,0.757 ± 0.028
18,RGLSCAAYFSGA,0.727 ± 0.028
19,RGPPPTSPPSPP,0.664 ± 0.013
20,RGPSSPTPRPAA,0.77 ± 0.13
21,RGRGRGGPLSGG,0.731 ± 0.017
22,RGRGRISGSWGT,0.718 ± 0.013
23,RGRGRVRPRRKR,0.6831 ± 0.0011

row,Sequence,protein stability index
1,RGRLVVGAGRED,0.697 ± 0.049
2,RGRQRSDPPTRL,0.717 ± 0.061
3,RGRWLKNARLSM,0.634 ± 0.065
4,RGRWRVGWGVGD,0.67 ± 0.017
5,RGRWVDWLSFTF,0.7278 ± 0.0022
6,RGSPFTAWSVLR,0.753 ± 0.019
7,RGSPPDPRGRAG,0.685 ± 0.074
8,RGSRFVAGGGSV,0.702 ± 0.038
9,RGSVSCLQLIGC,0.651 ± 0.034
10,RGSYLAFRVYGP,0.648 ± 0.03
11,RGVCVVGGCWLV,0.609 ± 0.016
12,RGVGEGFRAGCG,0.672 ± 0.0098
13,RGVIWLVCGGPC,0.54 ± 0.032
14,RGVVGFVGVVRE,0.6445 ± 0.0027
15,RGVWWWWGVAGA,0.749 ± 0.17
16,RGWGGGRKVSVG,0.652 ± 0.036
17,RGWKDQYIDADR,0.689 ± 0.012
18,RGWRYRAEGFRG,0.663 ± 0.022
19,RHGRDNPSGRLN,0.6902 ± 0.0046
20,RHRFDHWGPGPW,0.72 ± 0.055
21,RHVCPLLYPCSS,0.635 ± 0.036
22,RIAARAIISRGG,0.657 ± 0.021
23,RILSCGCVCFVM,0.702 ± 0.031

row,Sequence,protein stability index
1,RIMFVGYPLDWL,0.674 ± 0.041
2,RIPSDLTLNPRG,0.669 ± 0.05
3,RISWLKEATAIK,0.689 ± 0.019
4,RITSSLCPPLLR,0.695 ± 0.013
5,RKDNRRIMIKKR,0.648 ± 0.015
6,RKGFMQRHDTLD,0.6749 ± 0.0019
7,RKGVSLAILLGP,0.67 ± 0.055
8,RKKDHKSIIQII,0.57779 ± 0.00015
9,RKKKRKKKKTER,0.647 ± 0.041
10,RKKNEKKEDNKK,0.747 ± 0.12
11,RKKREKREKETN,0.598 ± 0.026
12,RKKTQQKTQNIQ,0.67 ± 0.024
13,RKNGEDLKKRGT,0.726 ± 0.077
14,RKNHPEKKKKPN,0.673 ± 0.024
15,RKNIKYNTKNSI,0.654 ± 0.03
16,RKQNVASESERK,0.752 ± 0.094
17,RKQQGDNHKGRG,0.706 ± 0.14
18,RKQRAGRRKDKQ,0.734 ± 0.043
19,RKRIPSITLPPP,0.754 ± 0.063
20,RKRKEKSLKAKL,0.784 ± 0.084
21,RKTHTRTQKRKL,0.675 ± 0.01
22,RKTKIKKLGRDK,0.644 ± 0.1
23,RKTRKKNRIRGI,0.6857 ± 0.0054

row,Sequence,protein stability index
1,RLAVQCVCQIGI,0.621 ± 0.019
2,RLDDFSALPPRY,0.781 ± 0.064
3,RLDFFIFSRWWI,0.727 ± 0.031
4,RLFASNPALSNL,0.709 ± 0.027
5,RLFHYPPPRHSY,0.61 ± 0.043
6,RLFSAWGCGLPL,0.7 ± 0.019
7,RLGGRDCWGPWG,0.693 ± 0.017
8,RLGGRGRGSIHS,0.652 ± 0.022
9,RLGVTVPLSGTV,0.5342 ± 0.00099
10,RLGWGGVGVAGV,0.683 ± 0.013
11,RLHAILKRSGLE,0.722 ± 0.068
12,RLHCEGCDPGSL,0.7189 ± 0.0015
13,RLIDMNFPVKKE,0.709 ± 0.04
14,RLLFPTLTAYLL,0.63 ± 0.029
15,RLLPAPPPPTRP,0.693 ± 0.036
16,RLLRLLTALPPL,0.6387 ± 0.0026
17,RLLVGFLSPFSC,0.713 ± 0.031
18,RLPASGTPAYSE,0.67 ± 0.02
19,RLPAVPSHPGLL,0.729 ± 0.037
20,RLPFLPPPPCPP,0.716 ± 0.046
21,RLPHCLRPPLSP,0.669 ± 0.069
22,RLPLYAIPPFPP,0.636 ± 0.0091
23,RLRCRYLSSTYY,0.712 ± 0.0078

row,Sequence,protein stability index
1,RLRDMPRDLTFW,0.706 ± 0.12
2,RLRGGVPGRTVG,0.68 ± 0.078
3,RLRPGGHPCVFF,0.66 ± 0.041
4,RLRPRHPRLLRS,0.735 ± 0.034
5,RLSPLTLPFCTS,0.645 ± 0.06
6,RLSPPGFRLGLF,0.517 ± 0.029
7,RLSRPPRIPRSQ,0.654 ± 0.0087
8,RLTLAFQKRSPP,0.668 ± 0.1
9,RLTRRSCLFSIT,0.785 ± 0.056
10,RLVAGETWAMSR,0.674 ± 0.0045
11,RMDIRVWATFCG,0.705 ± 0.11
12,RMEGCRLSLGVP,0.63 ± 0.075
13,RMGQQISSVRLF,0.679 ± 0.0082
14,RMKKKKNKARDI,0.729 ± 0.045
15,RMRTGTKCLSAG,0.705 ± 0.17
16,RNCSSALPPPPS,0.7154 ± 0.0028
17,RNERNAKAKNEK,0.649 ± 0.012
18,RNHHPHHVPTSR,0.667 ± 0.03
19,RNNKLGIRKSFL,0.69 ± 0.035
20,RNRGPAIRVRRK,0.635 ± 0.089
21,RNTPTATHHTTG,0.681 ± 0.026
22,RNVFVPFMRGSP,0.737 ± 0.077
23,RPAFPIPSLYPS,0.725 ± 0.11

row,Sequence,protein stability index
1,RPAIPPATPPPP,0.649 ± 0.027
2,RPALRPSPPLSP,0.682 ± 0.056
3,RPCPGPLPPPPP,0.662 ± 0.013
4,RPDSGFPLRGSS,0.75 ± 0.098
5,RPFSAPLCLLPS,0.7 ± 0.024
6,RPFSMGSNNIIR,0.7 ± 0.022
7,RPGRSDRCLRWS,0.673 ± 0.017
8,RPGWSRGREAVA,0.735 ± 0.14
9,RPHEAPTPGPVR,0.646 ± 0.013
10,RPHVLAHSLLLS,0.584 ± 0.011
11,RPLLVPVSSTPP,0.716 ± 0.045
12,RPLYPGSKVQLL,0.691 ± 0.024
13,RPNQNAFACMSP,0.702 ± 0.026
14,RPPPLLSPPSPP,0.718 ± 0.026
15,RPPPPASPPSAP,0.588 ± 0.076
16,RPPPPSPRPTRR,0.755 ± 0.032
17,RPPRNLDPSVSI,0.646 ± 0.13
18,RPPSPPLPPPLS,0.6906 ± 0.0013
19,RPRLQNLSRSNV,0.74 ± 0.074
20,RPSHSPAFSAFF,0.681 ± 0.024
21,RPSLPPSPLLRP,0.729 ± 0.0049
22,RPSPLPALASSL,0.65 ± 0.037
23,RPSPPPLRPFVL,0.576 ± 0.025

row,Sequence,protein stability index
1,RPSTRARPKPTP,0.693 ± 0.0086
2,RPTLPGGSPYYS,0.75 ± 0.05
3,RPTTPKCSSPKP,0.753 ± 0.11
4,RPTTTQPPPTAS,0.62 ± 0.022
5,RPVPPPLPSPPP,0.702 ± 0.016
6,RPVSALESPQAG,0.727 ± 0.059
7,RQCAACLGNPST,0.665 ± 0.1
8,RQFRKKNTLKSE,0.65 ± 0.1
9,RQGGTMVRLLGY,0.651 ± 0.089
10,RQIPAQAVKHVL,0.588 ± 0.02
11,RQKEVSISYCWI,0.646 ± 0.12
12,RQLSSFSDRSGS,0.715 ± 0.022
13,RQSITIAQPGRP,0.643 ± 0.014
14,RQSREGKANRRW,0.742 ± 0.049
15,RQVSRLFQGKKN,0.707 ± 0.03
16,RRAESRNEKQHS,0.687 ± 0.017
17,RRAGHYHYSVRL,0.704 ± 0.053
18,RRAVLDSPSRRY,0.786 ± 0.031
19,RRDIIMTKKTLH,0.658 ± 0.069
20,RRGRNGGKADLR,0.657 ± 0.0073
21,RRGTEGLGGGVG,0.6265 ± 0.0052
22,RRHNPARSRARG,0.686 ± 0.053
